From PMC11512059 (Nature Communications, 2024)

B1: human connexin 36 gap junction channel, wild type, in lipid nanodiscs containing brain lipids (Cx36_(Nano-BL)-WT) (natural protein, UniProt Q9UKL4 1-321, looked up)
chain: MGEWTILERLLEAAVQQHSTMIGRILLTVVVIFRILIVAIVGETVYDDEQTMFVCNTLQPGCNQACYDRAFPISHIRYWVFQIIMVCTPSLCFITYSVHQSAKQRERRYSTVFLALDRDPPESIGGPGGTGGGGSGGGKREDKKLQNAIVNGVLQNTENTSKETEPDCLEVKELTPHPSGLRTASKSKLRRQEGISRFYIIQVVFRNALEIGFLVGQYFLYGFSVPGLYECNRYPCIKEVECYVSRPTEKTVFLVFMFAVSGICVVLNLAELNHLGWRKIKLAVRGAQAKRKSIYEIRNKDLPRVSVPNFGRTQSSDSAYV
B2: human connexin 36 Ala14 deletion variant gap junction channel in lipid nanodiscs containing brain lipids (Cx36_(Nano-BL)-∆A14) (natural protein, UniProt Q9UKL4 1-321, looked up)
chain: MGEWTILERLLEAVQQHSTMIGRILLTVVVIFRILIVAIVGETVYDDEQTMFVCNTLQPGCNQACYDRAFPISHIRYWVFQIIMVCTPSLCFITYSVHQSAKQRERRYSTVFLALDRDPPESIGGPGGTGGGGSGGGKREDKKLQNAIVNGVLQNTENTSKETEPDCLEVKELTPHPSGLRTASKSKLRRQEGISRFYIIQVVFRNALEIGFLVGQYFLYGFSVPGLYECNRYPCIKEVECYVSRPTEKTVFLVFMFAVSGICVVLNLAELNHLGWRKIKLAVRGAQAKRKSIYEIRNKDLPRVSVPNFGRTQSSDSAYV

Molecular target: the molecule itself
Experiment: cryo-EM structure

Protein | binding result
B1 | binds
B2 | binds
